The target of the test is myc-tagged LRRTM2 (UniProt O43300). Description: immunostaining of cells or tissue; concentrated conditioned media with Fc proteins (~1 μg/ml) added to CHO cells expressing myc-LRRTM + GFP, on ice 30 min, washed, fixed; Fc detected with Cy3 anti-human IgG, ratio Fc MGV/LRRTM MGV, normalized to control-Fc.
Sequence of UniProt O43300 (O43300 34-516): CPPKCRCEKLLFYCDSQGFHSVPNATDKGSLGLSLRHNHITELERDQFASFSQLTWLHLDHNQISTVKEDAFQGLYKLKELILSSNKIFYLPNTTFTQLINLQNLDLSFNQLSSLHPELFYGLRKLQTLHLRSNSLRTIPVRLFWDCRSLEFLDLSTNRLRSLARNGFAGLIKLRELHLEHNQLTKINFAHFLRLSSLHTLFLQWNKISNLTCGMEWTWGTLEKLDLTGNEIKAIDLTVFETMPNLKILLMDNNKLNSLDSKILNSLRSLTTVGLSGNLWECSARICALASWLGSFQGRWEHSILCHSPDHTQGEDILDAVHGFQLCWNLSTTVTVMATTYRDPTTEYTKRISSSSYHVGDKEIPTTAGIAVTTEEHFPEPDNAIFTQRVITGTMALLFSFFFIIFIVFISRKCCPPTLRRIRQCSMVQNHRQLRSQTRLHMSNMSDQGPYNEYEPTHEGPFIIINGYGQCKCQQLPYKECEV

As to P469S HA-Nrxn1α-ecto-Fc (Fc fusion), the fold increase in binding against WT worked out at 2 fold.

Source of the values: paper PMC8709873.
